The values below come from IntAct's records for PubMed 18974936.

B1: Heavy metal-associated isoprenylated plant protein 26 (Arabidopsis thaliana (Mouse-ear cress)), Q9SZN7 (parent)
chain: MGVLDHVSEMFDCSHGHKIKKRKQLQTVEIKVKMDCEGCERKVRRSVEGMKGVSSVTLEPKAHKVTVVGYVDPNKVVARMSHRTGKKVELWPYVPYDVVAHPYAAGVYDKKAPSGYVRRVDDPGVSQLARASSTEVRYTTAFSDENPAACVVM
partner: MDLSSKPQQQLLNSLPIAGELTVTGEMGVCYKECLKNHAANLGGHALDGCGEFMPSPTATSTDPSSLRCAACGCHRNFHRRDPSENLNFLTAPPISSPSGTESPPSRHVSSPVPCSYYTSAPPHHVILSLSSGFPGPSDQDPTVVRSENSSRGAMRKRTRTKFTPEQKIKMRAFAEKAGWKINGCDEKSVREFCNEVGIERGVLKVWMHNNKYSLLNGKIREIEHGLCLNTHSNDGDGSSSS

This test covers variants of B1. Particulars: with zhd11_arath ZHD11, Q9SEZ1.
As for C36G;C39G, the “effect of a mutation on the interaction” value was “disrupting interaction”.
